Laboratory results as given in publication PMC12552129, “Methylthio-alkane reductases use nitrogenase metalloclusters for carbon–sulfur bond cleavage” (Nature Catalysis, 2025).
Where “and” joins values, the source holds several entries; their conditions need not be identical. Identical values can stand only once.

Experiments:
[1] = biological target: T1, Mar(DK)2, catalytic component of the methylthio-alkane reductase from Rhodospirillum rubrum (Rhodospirillum rubrum, UniProt Q2RW97 1-511; Q2RW98 1-466); assay: cryo-EM structure; MgADP-AlF3-trapped complex: 22 nmol MarH2 and 3 nmol Mar(DK)2 in 100 mM MOPS pH 7.3, 50 mM Tris pH 7.8, 100 mM NaCl, 5 mM DT, 4 mM NaF, 0.2 mM AlCl3, 8 mM MgCl2, 1 mM ATP, 3 h at 30 °C; isolated by size-exclusion chromatography (HiLoad 26/600 Superdex 200 pg); anaerobic single-particle cryo-EM; settings: both partners purified
T1 construct: MarD of Rhodospirillum rubrum, as the chain of m2; MarK of Rhodospirillum rubrum, as the chain of m3; Heterotetramer by mass photometry (227 kDa measured, 217 kDa theoretical); holds two P-clusters and two [Fe8S9C]-clusters; No tag cleavage is described; The deposited model (MarDK2H2) holds only one of the two MarD copies; copies: 2 + 2
T1 sequence 1: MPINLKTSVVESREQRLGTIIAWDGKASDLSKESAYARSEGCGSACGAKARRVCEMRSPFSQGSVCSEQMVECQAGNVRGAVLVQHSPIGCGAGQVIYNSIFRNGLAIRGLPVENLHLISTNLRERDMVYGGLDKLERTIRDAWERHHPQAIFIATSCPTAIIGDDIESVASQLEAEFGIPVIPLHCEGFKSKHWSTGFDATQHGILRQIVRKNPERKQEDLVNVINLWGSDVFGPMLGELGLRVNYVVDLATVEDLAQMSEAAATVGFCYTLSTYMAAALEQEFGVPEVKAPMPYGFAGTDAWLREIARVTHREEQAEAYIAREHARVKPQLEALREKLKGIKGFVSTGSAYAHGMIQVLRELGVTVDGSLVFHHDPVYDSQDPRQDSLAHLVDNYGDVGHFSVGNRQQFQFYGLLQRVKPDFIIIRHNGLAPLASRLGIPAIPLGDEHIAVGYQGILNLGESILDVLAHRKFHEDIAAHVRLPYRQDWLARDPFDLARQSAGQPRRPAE
T1 sequence 2: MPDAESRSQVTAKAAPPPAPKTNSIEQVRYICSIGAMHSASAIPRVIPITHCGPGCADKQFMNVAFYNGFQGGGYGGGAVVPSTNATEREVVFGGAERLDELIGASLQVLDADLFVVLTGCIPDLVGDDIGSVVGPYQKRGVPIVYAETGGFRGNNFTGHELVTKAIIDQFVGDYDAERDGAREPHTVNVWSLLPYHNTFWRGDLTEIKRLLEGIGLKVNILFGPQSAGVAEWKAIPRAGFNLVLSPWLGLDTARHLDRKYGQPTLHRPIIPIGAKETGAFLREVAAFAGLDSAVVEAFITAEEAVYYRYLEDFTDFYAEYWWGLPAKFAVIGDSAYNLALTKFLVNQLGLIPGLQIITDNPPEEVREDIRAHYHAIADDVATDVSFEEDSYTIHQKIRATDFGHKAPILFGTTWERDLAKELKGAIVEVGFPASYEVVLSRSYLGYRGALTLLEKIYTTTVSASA

[2] = biological target: the molecule itself; assay: mass photometry; TwoMP mass photometer; 0.5 µl of sample (500 nM stock, 4 mM sodium DT) added to 19.5 µl anaerobic measurement buffer (150 mM NaCl, 50 mM Tris pH 7.8, 10% glycerol, 10 mM sodium DT); each component measured alone
[3] = biological target: T2, MarD subunit of the methylthio-alkane reductase catalytic component from Rhodospirillum rubrum (Strep-tagged) (Rhodospirillum rubrum, UniProt Q2RW97 1-511); assay: as above; settings: both partners purified
T2 construct: MarD, subunit of the catalytic component of the methylthio-alkane reductase (marHDK) of Rhodospirillum rubrum; 57.5 kDa with the Strep tag; Holds the [Fe8S9C]-cluster; also called D1; source: Rhodobacter capsulatus MM0422 (plasmid-based, anfH promoter), soluble fraction of the lysate; purified anaerobically with MarK (Strep-Tactin XT 4Flow, PD-10 desalting); not shown: Strep-tag II, C-terminal, …
T2 sequence: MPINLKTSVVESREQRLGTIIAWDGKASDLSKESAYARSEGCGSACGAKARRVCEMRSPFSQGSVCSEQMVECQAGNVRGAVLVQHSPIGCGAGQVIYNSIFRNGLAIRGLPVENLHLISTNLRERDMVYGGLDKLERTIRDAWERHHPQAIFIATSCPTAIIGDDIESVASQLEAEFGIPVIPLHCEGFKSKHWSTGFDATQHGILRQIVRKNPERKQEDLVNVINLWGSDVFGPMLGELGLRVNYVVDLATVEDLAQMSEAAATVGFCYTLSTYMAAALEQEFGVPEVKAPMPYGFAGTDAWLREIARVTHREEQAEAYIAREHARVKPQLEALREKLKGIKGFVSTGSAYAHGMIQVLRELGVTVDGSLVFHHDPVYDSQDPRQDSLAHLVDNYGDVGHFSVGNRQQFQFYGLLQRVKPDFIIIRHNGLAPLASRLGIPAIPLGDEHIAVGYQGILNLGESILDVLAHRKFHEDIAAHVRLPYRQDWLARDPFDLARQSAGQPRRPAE

B1: MarH2, reductase component of the methylthio-alkane reductase from Rhodospirillum rubrum (His-tagged MarH) (enzyme)
chain: AKSPKQIAIYGKGGIGKSTTTSNISAALAEAGYKVMQFGCDPKSDSTNTLRGGDYIPSVLDLLRENARVDAHEAIFQGFGGIYCVEAGGPAPGVGCAGRGIITAVELLKQQNVFEELDLDYVIFDVLGDVVCGGFAVPIREGIAEHVFTVSSSDFMAIYAANNLFKGIQKYSNAGGALLGGVIANSINTDFHRDIIDDFVARTQTQVVQYVPRSLTVTQAELQGRTTIEAAPESAQAEIYRTLARSIADHTDSKVPTPLNAQELRDWSASWANQLIEIERASQPIPALAS
notes: MarH, reductase subunit of the methylthio-alkane reductase (marHDK) of Rhodospirillum rubrum; 31.9 kDa with the His tag; Homodimer by mass photometry; holds one [Fe4S4]-cluster in the dimer interface; No tag cleavage is described, and the theoretical mass of 64 kDa equals twice the 31.9 kDa of His-tagged MarH; also called H1 and H2; source: Rhodobacter capsulatus MM0422 (plasmid-based, anfH …)
stoichiometry N [1]: 1 and 2
stoichiometry N [2]: 2

B2: MarK subunit of the methylthio-alkane reductase catalytic component from Rhodospirillum rubrum (enzyme)
chain: MPDAESRSQVTAKAAPPPAPKTNSIEQVRYICSIGAMHSASAIPRVIPITHCGPGCADKQFMNVAFYNGFQGGGYGGGAVVPSTNATEREVVFGGAERLDELIGASLQVLDADLFVVLTGCIPDLVGDDIGSVVGPYQKRGVPIVYAETGGFRGNNFTGHELVTKAIIDQFVGDYDAERDGAREPHTVNVWSLLPYHNTFWRGDLTEIKRLLEGIGLKVNILFGPQSAGVAEWKAIPRAGFNLVLSPWLGLDTARHLDRKYGQPTLHRPIIPIGAKETGAFLREVAAFAGLDSAVVEAFITAEEAVYYRYLEDFTDFYAEYWWGLPAKFAVIGDSAYNLALTKFLVNQLGLIPGLQIITDNPPEEVREDIRAHYHAIADDVATDVSFEEDSYTIHQKIRATDFGHKAPILFGTTWERDLAKELKGAIVEVGFPASYEVVLSRSYLGYRGALTLLEKIYTTTVSASA
notes: MarK, subunit of the catalytic component of the methylthio-alkane reductase (marHDK) of Rhodospirillum rubrum; 50.8 kDa; No tag is described for MarK; also called K1 and K2; source: Rhodobacter capsulatus MM0422 (plasmid-based, anfH promoter), soluble fraction of the lysate; purified anaerobically with Strep-tagged MarD (Strep-Tactin XT 4Flow, PD-10 desalting)
binding result [3]: binds
